Assay results as given in publication PMC5916898, “Global profiling of protein–DNA and protein–nucleosome binding affinities using quantitative mass spectrometry”.

T1: BBX (Homo sapiens, UniProt Q8WY36)
T1 sequence: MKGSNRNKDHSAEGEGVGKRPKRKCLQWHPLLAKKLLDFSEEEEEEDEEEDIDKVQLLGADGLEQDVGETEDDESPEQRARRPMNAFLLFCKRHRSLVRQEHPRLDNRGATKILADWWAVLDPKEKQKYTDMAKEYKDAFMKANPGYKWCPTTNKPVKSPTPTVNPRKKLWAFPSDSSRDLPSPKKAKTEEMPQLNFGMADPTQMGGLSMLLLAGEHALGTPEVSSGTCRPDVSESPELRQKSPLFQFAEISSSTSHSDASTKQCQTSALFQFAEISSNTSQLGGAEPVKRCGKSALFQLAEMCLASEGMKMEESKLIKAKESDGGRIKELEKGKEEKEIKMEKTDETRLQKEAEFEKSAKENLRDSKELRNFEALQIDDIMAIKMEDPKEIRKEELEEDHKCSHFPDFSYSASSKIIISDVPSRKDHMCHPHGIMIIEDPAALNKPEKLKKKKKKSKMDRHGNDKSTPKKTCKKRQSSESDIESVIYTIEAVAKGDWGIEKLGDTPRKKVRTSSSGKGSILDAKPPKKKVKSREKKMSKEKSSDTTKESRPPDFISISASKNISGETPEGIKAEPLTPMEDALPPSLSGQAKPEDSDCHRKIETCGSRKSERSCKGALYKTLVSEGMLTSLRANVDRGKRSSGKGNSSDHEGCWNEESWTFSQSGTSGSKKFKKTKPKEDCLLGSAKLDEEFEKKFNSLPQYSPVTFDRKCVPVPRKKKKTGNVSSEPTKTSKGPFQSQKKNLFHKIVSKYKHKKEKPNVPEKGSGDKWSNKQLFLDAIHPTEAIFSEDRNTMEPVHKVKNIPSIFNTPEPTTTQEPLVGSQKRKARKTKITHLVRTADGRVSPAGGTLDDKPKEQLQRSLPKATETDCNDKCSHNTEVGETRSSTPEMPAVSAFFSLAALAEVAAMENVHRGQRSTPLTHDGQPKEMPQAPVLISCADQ

T2: ZNF148 (Homo sapiens, UniProt Q9UQR1)
T2 sequence: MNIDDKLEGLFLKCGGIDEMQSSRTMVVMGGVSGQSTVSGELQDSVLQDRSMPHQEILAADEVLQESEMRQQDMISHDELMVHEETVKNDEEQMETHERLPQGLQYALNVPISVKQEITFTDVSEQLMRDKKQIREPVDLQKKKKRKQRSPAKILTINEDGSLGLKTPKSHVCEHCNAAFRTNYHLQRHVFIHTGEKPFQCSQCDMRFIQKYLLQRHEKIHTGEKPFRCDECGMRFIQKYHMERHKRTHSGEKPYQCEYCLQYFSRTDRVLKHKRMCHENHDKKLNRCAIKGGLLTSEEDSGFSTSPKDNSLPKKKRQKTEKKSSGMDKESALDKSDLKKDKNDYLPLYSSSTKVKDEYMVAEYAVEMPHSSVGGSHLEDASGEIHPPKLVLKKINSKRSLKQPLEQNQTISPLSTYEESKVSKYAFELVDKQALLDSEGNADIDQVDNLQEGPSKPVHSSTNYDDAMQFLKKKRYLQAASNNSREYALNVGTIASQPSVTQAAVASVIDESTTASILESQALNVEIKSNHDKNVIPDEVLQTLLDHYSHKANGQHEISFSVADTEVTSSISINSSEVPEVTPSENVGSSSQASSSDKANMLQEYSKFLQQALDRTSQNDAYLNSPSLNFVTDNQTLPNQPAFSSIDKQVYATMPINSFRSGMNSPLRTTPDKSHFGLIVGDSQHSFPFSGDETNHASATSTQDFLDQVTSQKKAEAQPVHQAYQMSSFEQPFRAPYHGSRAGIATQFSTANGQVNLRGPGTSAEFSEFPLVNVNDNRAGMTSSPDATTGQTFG

B1: SP/KLF wild-type (dsDNA)
DNA 1: GAGAGCCCCGCCCCCTGGCT
DNA 2: AGCCAGGGGGCGGGGCTCTC
B2: CTCF (dsDNA)
DNA 1: TCAGAGTGGCGGCCAGCAGGGGGCGCCCTTGCCAGA
DNA 2: TCTGGCAAGGGCGCCCCCTGCTGGCCGCCACTCTGA
B3: TATA-box (dsDNA)
DNA 1: GCGGCGCTCTATATAAGTGGGCAGTG
DNA 2: CACTGCCCACTTATATAGAGCGCCGC
B4: TEAD (dsDNA)
DNA 1: TCGGGACCCAGGCCTGGAATGTTTCCACC
DNA 2: GGTGGAAACATTCCAGGCCTGGGTCCCGA

These binders were tested against TFAP2A (Homo sapiens, UniProt P05549) (assay: pulldown; 150 mM NaCl, 50 mM Tris pH 8, 0.25% NP-40, 1 mM TCEP; 4 C, 2 h; 100 ug HeLa nuclear lysate). Settings: protein: extract; label: 5' biotin (strand 1).
Chain of TFAP2A (P05549 whole entry): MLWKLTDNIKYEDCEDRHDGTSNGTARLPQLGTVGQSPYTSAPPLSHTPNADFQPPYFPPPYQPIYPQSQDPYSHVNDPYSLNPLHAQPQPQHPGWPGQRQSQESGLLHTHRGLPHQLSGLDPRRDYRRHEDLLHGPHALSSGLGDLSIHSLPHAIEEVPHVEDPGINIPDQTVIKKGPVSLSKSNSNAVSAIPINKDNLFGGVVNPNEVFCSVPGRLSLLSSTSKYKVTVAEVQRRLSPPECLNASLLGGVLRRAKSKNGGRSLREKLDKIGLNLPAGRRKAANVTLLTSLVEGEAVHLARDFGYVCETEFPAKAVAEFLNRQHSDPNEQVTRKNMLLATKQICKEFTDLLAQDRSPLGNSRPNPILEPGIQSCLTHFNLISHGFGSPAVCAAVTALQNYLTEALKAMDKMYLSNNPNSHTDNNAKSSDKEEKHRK

**Q.** B1 was tested. Which “apparent K (half saturation)” value did it give?
**A.** 196 nM

**Q.** Which “apparent K (half saturation)” value does the source give for B2 here?
**A.** 83.3 nM

**Q.** How did the “apparent K (half saturation)” value turn out when B3 was run?
**A.** 328 nM

**Q.** For B4, which “apparent K (half saturation)” value is on record?
**A.** 193 nM

Each binder was assayed against T1, BBX in the same assay as above. Settings: protein: extract; label: 5' biotin (strand 1).

**Q.** For B2, which “apparent K (half saturation)” value is on record?
**A.** 308 nM

**Q.** With B3 as the binder, how does the “apparent K (half saturation)” value read?
**A.** 405 nM

**Q.** For B4, which “apparent K (half saturation)” value is on record?
**A.** 390 nM

These binders were tested against KLF5 (Homo sapiens, UniProt Q13887) in the same assay as above. Settings: protein: extract; label: 5' biotin (strand 1).
Chain of KLF5 (Q13887 whole entry): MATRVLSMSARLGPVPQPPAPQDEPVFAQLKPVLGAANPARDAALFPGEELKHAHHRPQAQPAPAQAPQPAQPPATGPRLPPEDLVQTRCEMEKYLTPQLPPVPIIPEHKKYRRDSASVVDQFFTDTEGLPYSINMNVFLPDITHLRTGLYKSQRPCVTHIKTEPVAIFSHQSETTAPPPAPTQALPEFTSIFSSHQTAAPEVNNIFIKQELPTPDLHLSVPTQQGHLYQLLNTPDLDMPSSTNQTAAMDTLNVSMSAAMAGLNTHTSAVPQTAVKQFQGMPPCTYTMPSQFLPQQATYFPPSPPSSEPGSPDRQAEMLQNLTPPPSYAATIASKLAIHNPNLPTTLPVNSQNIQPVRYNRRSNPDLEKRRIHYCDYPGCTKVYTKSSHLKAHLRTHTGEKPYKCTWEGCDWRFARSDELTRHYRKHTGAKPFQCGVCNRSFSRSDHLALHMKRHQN

**Q.** For B1, which “apparent K (half saturation)” value is on record?
**A.** 37 nM

**Q.** For B2, which “apparent K (half saturation)” value is on record?
**A.** 25.3 nM

**Q.** Which “apparent K (half saturation)” value does the source give for B3 here?
**A.** 219 nM

**Q.** B4 was tested. Which “apparent K (half saturation)” value did it give?
**A.** 101 nM

These binders were tested against SP1 (Homo sapiens, UniProt P08047) in the same assay as above. Settings: protein: extract; label: 5' biotin (strand 1).
Chain of SP1 (P08047 whole entry): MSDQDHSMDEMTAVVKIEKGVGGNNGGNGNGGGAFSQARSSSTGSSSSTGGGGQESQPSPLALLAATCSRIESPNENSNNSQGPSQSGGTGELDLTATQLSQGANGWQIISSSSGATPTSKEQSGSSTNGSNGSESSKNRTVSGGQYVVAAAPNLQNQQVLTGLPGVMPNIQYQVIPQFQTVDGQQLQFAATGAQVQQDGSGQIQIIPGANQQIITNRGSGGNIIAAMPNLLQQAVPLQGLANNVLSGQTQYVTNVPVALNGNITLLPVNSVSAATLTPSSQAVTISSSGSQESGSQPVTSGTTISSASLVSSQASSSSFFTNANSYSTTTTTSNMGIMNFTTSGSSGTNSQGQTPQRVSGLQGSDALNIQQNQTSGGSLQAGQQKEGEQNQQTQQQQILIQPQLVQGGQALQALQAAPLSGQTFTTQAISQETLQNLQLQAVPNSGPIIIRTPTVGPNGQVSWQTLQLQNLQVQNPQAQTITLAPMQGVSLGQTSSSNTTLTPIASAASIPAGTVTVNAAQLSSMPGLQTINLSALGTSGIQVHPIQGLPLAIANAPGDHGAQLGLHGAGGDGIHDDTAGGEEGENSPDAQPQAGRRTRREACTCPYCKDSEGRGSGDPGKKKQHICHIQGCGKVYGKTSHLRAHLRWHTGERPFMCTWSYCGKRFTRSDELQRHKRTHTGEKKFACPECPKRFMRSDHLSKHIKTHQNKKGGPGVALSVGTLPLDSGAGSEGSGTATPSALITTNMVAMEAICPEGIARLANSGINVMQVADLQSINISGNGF

**Q.** With B1 as the binder, how does the “apparent K (half saturation)” value read?
**A.** 38 nM

**Q.** Which “apparent K (half saturation)” value does the source give for B2 here?
**A.** 86.9 nM

**Q.** Which “apparent K (half saturation)” value does the source give for B3 here?
**A.** 284 nM

What follows are binders tested against ZBTB7A (Homo sapiens, UniProt O95365) in the same assay as above. Settings: protein: extract; label: 5' biotin (strand 1).
Chain of ZBTB7A (O95365 whole entry): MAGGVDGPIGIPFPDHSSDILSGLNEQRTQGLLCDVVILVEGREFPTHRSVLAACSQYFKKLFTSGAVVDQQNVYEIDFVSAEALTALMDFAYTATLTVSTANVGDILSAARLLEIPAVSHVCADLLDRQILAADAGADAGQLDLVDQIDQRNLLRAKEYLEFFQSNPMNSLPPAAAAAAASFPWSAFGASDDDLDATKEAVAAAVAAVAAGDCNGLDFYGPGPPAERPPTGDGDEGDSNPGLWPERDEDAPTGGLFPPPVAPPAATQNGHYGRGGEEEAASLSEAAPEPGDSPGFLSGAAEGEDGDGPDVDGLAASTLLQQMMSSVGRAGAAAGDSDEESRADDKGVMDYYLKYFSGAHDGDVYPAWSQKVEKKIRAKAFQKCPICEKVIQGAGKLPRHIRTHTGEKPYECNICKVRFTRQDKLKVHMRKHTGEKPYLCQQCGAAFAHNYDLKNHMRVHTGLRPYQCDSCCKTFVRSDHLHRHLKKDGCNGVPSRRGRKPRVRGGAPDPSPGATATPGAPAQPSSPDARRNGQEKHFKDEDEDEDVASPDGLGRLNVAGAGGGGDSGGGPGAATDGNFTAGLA

**Q.** B1 was tested. Which “apparent K (half saturation)” value did it give?
**A.** 174 nM

**Q.** Which “apparent K (half saturation)” value does the source give for B2 here?
**A.** 38.9 nM

**Q.** How did the “apparent K (half saturation)” value turn out when B3 was run?
**A.** 258 nM

**Q.** For B4, which “apparent K (half saturation)” value is on record?
**A.** 129 nM

These binders were tested against KLF4 (Homo sapiens, UniProt O43474) in the same assay as above. Settings: protein: extract; label: 5' biotin (strand 1).
Chain of KLF4 (O43474 whole entry): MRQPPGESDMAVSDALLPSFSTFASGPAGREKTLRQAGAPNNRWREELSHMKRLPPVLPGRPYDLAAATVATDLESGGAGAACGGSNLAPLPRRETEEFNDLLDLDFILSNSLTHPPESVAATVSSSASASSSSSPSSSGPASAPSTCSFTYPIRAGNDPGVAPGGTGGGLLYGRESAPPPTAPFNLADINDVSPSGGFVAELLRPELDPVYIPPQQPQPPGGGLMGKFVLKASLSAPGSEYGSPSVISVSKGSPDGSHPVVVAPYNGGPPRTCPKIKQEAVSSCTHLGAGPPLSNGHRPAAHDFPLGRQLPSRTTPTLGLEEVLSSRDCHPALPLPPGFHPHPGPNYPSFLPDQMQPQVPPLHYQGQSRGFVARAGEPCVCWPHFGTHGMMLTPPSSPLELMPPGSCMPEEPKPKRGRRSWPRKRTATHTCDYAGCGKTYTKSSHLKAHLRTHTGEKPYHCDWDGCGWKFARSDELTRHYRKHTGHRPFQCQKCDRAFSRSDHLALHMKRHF

**Q.** B1 was tested. Which “apparent K (half saturation)” value did it give?
**A.** 79.3 nM

**Q.** B2 was tested. Which “apparent K (half saturation)” value did it give?
**A.** 26.3 nM

**Q.** With B3 as the binder, how does the “apparent K (half saturation)” value read?
**A.** 159 nM

The binders below were run against KLF16 (Homo sapiens, UniProt Q9BXK1) in the same assay as above. Settings: protein: extract; label: 5' biotin (strand 1).
Chain of KLF16 (Q9BXK1 whole entry): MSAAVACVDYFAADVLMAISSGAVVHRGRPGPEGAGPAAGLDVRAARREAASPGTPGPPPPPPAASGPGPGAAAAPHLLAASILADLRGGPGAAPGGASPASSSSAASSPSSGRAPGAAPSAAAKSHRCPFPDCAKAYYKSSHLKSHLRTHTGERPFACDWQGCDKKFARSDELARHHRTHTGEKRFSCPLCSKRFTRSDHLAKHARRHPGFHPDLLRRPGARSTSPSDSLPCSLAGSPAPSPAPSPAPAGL

**Q.** B1 was tested. Which “apparent K (half saturation)” value did it give?
**A.** 14.5 nM

**Q.** Which “apparent K (half saturation)” value does the source give for B2 here?
**A.** 109 nM

**Q.** B3 was tested. Which “apparent K (half saturation)” value did it give?
**A.** 151 nM

What follows are binders tested against T2, ZNF148 in the same assay as above. Settings: protein: extract; label: 5' biotin (strand 1).

**Q.** Which “apparent K (half saturation)” value does the source give for B1 here?
**A.** 70.5 nM

**Q.** B2 was tested. Which “apparent K (half saturation)” value did it give?
**A.** 63.7 nM

**Q.** For B3, which “apparent K (half saturation)” value is on record?
**A.** 383 nM

**Q.** Which “apparent K (half saturation)” value does the source give for B4 here?
**A.** 387 nM
